A short description of this data set: soluble on expression in E. coli; label from the status in PepcDB or PDB records.
Consider “MGSDKIHHHHHHMTTRVIALDLDGTLLTSKKTILPASLEALARAREAGYQVIVVTGRHHVAIHPFYQALALDTPAICCNGTYLYDYHAKKVLAADPMPVEQAVSLTAMLAKQQIHGLAYVDDAMLYEHPTGHVIRTRNWAQALPEDQRPVFAQVDSLAQAVREVNAVWKFALTDDDIPRLQRFAQQVGETLGLECEWSWHDQVDIARAGNSKGKRLAQWVADQGLSMQDVMAFGDNYNDLSMLEAAGTGVAMGNAVDEVKARANIVIGDNESTSIAEFIYRQLL”, for which the “soluble on expression in E. coli” value was “not soluble”.
On to “MSEFHSEISTLSPAPLWQFFDKICSIPHPSKHEEALAQYIINWATEQGFDVRRDPTGNVFIKKPATPGMENKKGVVLQAHIDMVPQKNEDTDHDFTKDPIQPYIDGEWVTAKGTTLGADNGIGMASCLAVLASKDIKHGPIEVLLTIDEEAGMTGAFGLEAGWLEGDILLNTDSEQEGEVYMGCAGGIDGAMTFDIKRDAIPTGFVTRQLTLKGLKGGHSGCDIHTGRGNANKLLGRFLAGHAQELDLRLVEFRGGSLRNAIPREAFVTVAVPAENQEKLAELFNYYTELLKAELGKVETGIVTFNEEIVTESQAFTAADQQRFIAALNACPNGVMRMSDEIEGVVETSLNVGVITTEENKVTVLCLIRSLIDSGRSQVESMLRSVAELAGAQVEFSGAYPGWKPDADSEIMAIFRDMYEGIYGHKPNIMVIHAGLECGLFKEPYPNMDMVSFGPTIKFPHSPDEKVKIDTVQLFWDQMVALLEAIPEKALEHHHHHH”, for which the “soluble on expression in E. coli” value was “soluble”.
For the sequence “MSLIFILGIFYYLTQPLKSNSVVFIPQGSISQIITYLKQNKYQMSNIDKYILFFLGHPQSGWINIGTKDLNRAEFLHKLTIAKAALQTITLIPGETSVIFLEQAAKQLGLDKDILLKEFQAQAPYDEGVFLPETYKIPKGITENLLIQMLLNHAEISNKKTSEKIFGDYNPKKWHQYIIIASVIQKEAANDNEMPIVASVIYNRLKKGMKLQMDGTLNYGIYSHVKVTPQRIRQDNSFYNTYKFTGLPKEAVCNVSLAAIRAAIFPLKTDYLYFVRDKNTGVHIFSTNIDDHNKAINLQKGKEGHHHHHH”, the “soluble on expression in E. coli” value is on record as “not soluble”.
Under “GPGSMKTIALLSGGKDSILAMLMAHRYGHEPVVIANMAPVLESDGALRGAAENGTHGHDIDSYMYQTVGFEAVDSIAACLGLPLRRGRVRRGLAKDQSLLYSEQPPEEDEVESLYSLIRTVKEEFPEVQGLTSGAILSNYQRNRVELICDRLGLESLAYLWMRQPDEILDMADALHVQAILVKTASIGLMPRCLIGKTLEEARPTLEKMAELYHSHLAGEGGEYETIVLNCPLFHAEHLTVTALEVVMQDDNDISPSGHGLLTVARVPKSVEQQAKEAEVLARVRAGAVTFPSDTMPLLRSCAVYPLALSATASARGPGETIDLPLPATIRSALFLGSGTAAARDGIAHHTYASPLEAGASAAEALNACLTVLQTWAAERSLTPFYYHFSLPEPSWEVSCRAAYAGKVSHVCPPGLLVTVRDSRSRSAAAVEAEVLAAPTAAIQQHVLHAQSRSCWALGEPGPHSQARRVGLATGTSRLFVSATPGRVPATREVATASDLPAVCQQCITALAAAQHGEETSAALTDIAAQFVVAMSNCERYLTLFGCSFGDVDRAAVVATDDVPVSLLPALWQWTTQNTGALPFERVCQVVVVGALSGTEKIRVSMECVEVRGGGG” stands “not soluble”; under “MPLSTSDNIAAVIVTHKRVELLRASLEVVAAQTHPVKWIIVVDNGCEDAVRDLLHSVAGDRGIYLPSHTNLGGAGGFAYGFLTALALGADAIWCADDDGRPEGPQVLATLIDAAVTHQLDEVSPVVCNMDDPNRLAFPLRRGLEWRRYRSELIDPNNPSDTLLPGIASLFNGALISAAAMERIGVPDLRLFIRGDEVEYHRRLVRSGLNFGTCLTTAYLHPDGSDEFKPILGGRMHTQYPASDAKRYFTYRNRGYLMNQPGMRRLLPQEYARFAWFFLIQRRDPRGFLEWFKLHQLGRSEKFERPLEHHHHHH”, “not soluble”.
For the sequence “GSMADEALFLLLHNEMVSGVYKSAEQGEVENGRCITKLENMGFRVGQGLIERFTKDTARFKDELDIMKFICKDFWTTVFKKQIDNLRTNHQGIYVLQDNKFRLLTQMSAGKQYLEHASKYLAFTCGLIRGGLSNLGIKSIVTAEVSSMPACKFQVMIQKL”, the “soluble on expression in E. coli” value was “soluble”.
Under “KALEEMHIPVDIITGTSMGAYVGGLYATGMSADEIESFIYSVDWNSGYRDRVDRSQRRVRDKEYEDRYQITTDLGLRFGEVRAPTGVVQGQNMLRVLRETTGNLGRFDSFDELAIPYRSVATDILELDEVVIGNGYLVDAMMASMSVPGALPPYKLNGHMLVDGGVVNNMPVDVARAMGADVVIAVDISTDYKTEDDFTGLFTVADQLSNYLVRRSTQQQVETLQEHDVYIRPNVGQMETVEFDKMPWAFQSGYDITREMESKLAGLRLSNAEYQKYIDHKQEVRKKLVYGDDRVVDEIVIVNNTHYS” stands “not soluble”.
Under “MSLKRNNVNVVNRTKNSNPEFRIPLHYKHKIPFVLSDAIERNHDQDLTAEVHFYLALPPERCRRIYKSRRKALNAMLRAILYHVNVISKQVPISATMLTEYCGLTTISAAGNKSVTRGTRTLAMLRDLGFITYRQCWDRVSRRYFPSAIAVTERLIDLVGICPERWRTELNNKLANYNHKIFKKEGITLNEYDYARNLREDQLKRSYMYHSNRKEIKKKKKEATRLEKLVKIKGENELRHLISRQVSEEFLKGFIPGAQLKDLKKIVDKRINTLKKIAKSLHEGHHHHHH” stands “not soluble”; under “MSLRANCLVQTTEWSACSKTCGMGISTRVTNDNASCRLEKQSRLCMVRPCEADLEENIKKGKKCIRTPKISKPIKFELSGCTSMKTYRAKFCGVCTDGRCCTPHRTTTLPVEFKCPDGEVMKKNMMFIKTCACHYNCPGDNDIFESLYYRKMYGDMAEGHHHHHH”, “not soluble”.
On to “MSLHQFLLFKIKVPTGSMMPTVEIGDQLFVTKIYNPNNIKRGDIVVFNSDELKEPLLKRVIGLPGEHVEIKSDGSVYINGNKLEEDYVKYQGGKTDMSFDVPSGKFLMLGDNRNNSDDARYWSNPYIDGKDIEAKAQLTVYPFDRIGFVKEGHHHHHH”, for which the “soluble on expression in E. coli” value is “soluble”.
The same measure for “MGSDKIHHHHHHMAGATLLTSSCNDWLDVLPKNEQVSPEYWKTKEQVEEVLAQGYQNMRLTVPTLIYWGELRGASIYAYSGKSKQELQNFQLNSSSGECKWGGFYSILNVANSIIKYAPEVKRQDETYHEAVMNSNMAEAYFMRAWTYFTLVRNFKEVPLILEPYMTDEYAVDIPKSSEETIIAQIKLDIENALSTGAAKEMYDDEDWTGMSKGRVTVWALYALMADVCLWSEDYDGCVRYADMLINSTSAFRPAFVEDPEQWYNIFFPGNSNGSIFELNFDQSRNQSPDDDATASTYPSPSNVYPWTQSTVASLQFSNAMCKRLFDEQTDQWVTSNTVRGYGNTFVLSSGTVIGNSNTEGYLPFKFRIGGKDGLSTTRSYKDANWILYRMADVLLMKAEALIWKGGEANFAQALELINKIRTRANVTTLSVQTNAVSQENMLGYLLQERDLEFAAEGKRWYDLLRFGRSQNFKYKDQFINMIIENNSTVSASWIRSVLKNTDAWYLPISQGEIDSNPNLIQNPYYDVTAN”: “not soluble”; for “GSCASCPNNCENGLCTNSCDFEDLLSNCESLKTSAGCKHELLKTKCQATCLCEDKIH”: “soluble”; for “MTPLGPASSLPQSFLLKCLEQVRKIQGDGAALQEKLCATYKLCHPEELVLLGHSLGIPWAPLSSCPSQALQLAGCLSQLHSGLFLYQGLLQALEGISPELGPTLDTLQLDVADFATTIWQQMEELGMAPALQPTQGAMPAFASAFQRRAGGVLVASHLQSFLEVSYRVLRHLAQP”: “soluble”.
As for “MGSDKIHHHHHHMYKTYREEERKSVDRGIFKEVPLPCAFLDEVALDRNIQLIIELSGNKKIRIASKSLRSVPVMQKILAANDRFQGIMCFSPREVLFLIEQGFNDLLLGYPAYDDRALHEISLLTKQGLIITCMVDCEDHIVYLEKIAEKSKGCFRVCLDIDMSSRFLNFHFGVKRSPVRDVQGALKIVKRLKESSFLILDGVMGYEAQIAGVGDHIPNQRVKSKVISYLKKKSVLEVKARRGHIVKEIQNLGIELRFVNGGGTGSIKTTEQDHSVSEITIGSAFYAPKLFDYYKEVQLQPAVGFALPVVRKPAPTIYTCLGGGYIASGAIGKDKEPEIWRPNGAKLLALEGAGEVQTPIFYNGEERVEIGDSILFRHSKAGELCERFPFLYRVKEGEIVGEYSTYRGDGQCFL”, the “soluble on expression in E. coli” value is reported as “not soluble”.
Under “MGHHHHHHSHMDLSYALETVLNKQFPSSPQDVLGELQFAFVCFLLGNVYEAFEHWKRLLNLLCRSEAAMMKHHTLYINLISILYHQLGEIPADFFVDIVSQDNFLTSTLQVFFSSACSIAVDATLRKKAEKFQAHLTKKFRWDFAAEPEDCAPVVVELPEGIEMG” stands “not soluble”; under “MTQLATICYIDNGDSLLLLHRNKKENDVHKGKWISVGGKLEAGETPDECARREILEETHLTVTEMAFKGIITFPEFTPGHDWYTYVFKVTGFEGDLISDEESREGTLEWVPYDQVLEKPTWEGDYDIFKWILEDRSFFSAKFTYDQNNQLMDKSVTFY”, “not soluble”.
In the case of “MGSDKIHHHHHHMGKAMDLPAETREAANNVIKMQRDADWQNDFKKNSDDGIKTQSLYNIRLIMEHDEMLKGLVAFDEFSEQIVKTPQAENSLFKKGFWNDGDDTLLRSYIEDHYNLLFSKENITDAVVTEARRKTINPVKARIEAVEWDGQPRAERYFINYLGAEDNHYTRTITKKWLTGLIARAYVPGVKFEIVPILEGSQGLGKSTAGKNLYPDKFNDSLKGMGKQKDDYQQLQGSWIIEVAELSAMKKTDIEGIKNFISAQSDTYRNSYGRYALPHPRKCVFIGTTNQTDYLKDATGERRFYPIKCGVNKAKLDVWHPDENYMLQVLAEAAYWFKNGEPLYLDQATMKEAKAYQMAAEAVDPMRDAIEAFLAMEVPTDWENMSTSLKQSYVSDYGHHSKWLQDQVSNERKLLNQTTTREIMEVVFHKTVDRYLTGRTNSEAKRIKLLMDNMDGWKSQRIRMNGQRLHGYMREV”, the “soluble on expression in E. coli” value was “not soluble”.
Turning to “MKKHHHHHHEDFHGIDIVINHRLKTSLEEGKVLEKTVPDLNNCKENYEFLIKWTDESHLHNTWETYESIGQVRGLKRLDNYCKQFIIEDQQVRLDPYVTAEDIEIMDMERERRLDEFEEFHVPERIIDSQRASLEDGTSQLQYLVKWRRLNYDEATWENATDIVKLAPEQVKHFQKK”, the “soluble on expression in E. coli” value is reported as “soluble”.
The same measure for “MKRPDYRTLQALDAVIRERGFERAAQKLCITQSAVSQRIKQLENMFGQPLLVRTVPPRPTEQGQKLLALLRQVELLEEEWLGDEQTGSTPLLLSLAVNADSLATWLLPALAPVLADSPIRLNLQVEDETRTQERLRRGEVVGAVSIQHQALPSCLVDKLGALDYLFVASKPFAERYFPNGVTRSSLLKAPAVAFDHLDDMHQAFLQQNFDLPPGSVPCHIVNSSEAFVQLARQGTTCCMIPHLQIEKELESGELINLTPGLLQRRMLYWHRFAPESRMMRKVTDALLEYGHKVLRQD”: “not soluble”.
The same measure for “MLLQLAEDRRRLKGVQSTVKKAEIKVELLPKYAAWAEGVLAAGGAQQDDVLMYVMLWRIDAGDYAGALEIGRHALRHGWVMPLGNRNVQTVLAEEMADAAQSAMLATTGFDVDLLLQTLELTDGLDMPDQSRARLHKAIGAVLSESNPASALNHLNHALQLDPRCGVKKDKQQLERRLRNDSR”: “not soluble”.

(Values after the DeepSol protein solubility set.)
